{"source": "patent US20190100598A1", "about": "(CELLDEX THERAPEUTICS, published 2019)", "binders": {"B1": {"name": "antibody 37M (antibody, V domains shown)", "VH": "QVQLKQSGAELVRPGASVKLSCKASGYTFTDYYINWVKQRPGQGLEWIARIYPGSGNTYYNEKFKGKATLTAEKSSSTAYMQLSSLTSEDSAVYFCARGVYYFDYWGQGTTLTVSS", "VL": "DIVMTQSQKFMSTSVGDRVSVTCKASQNVRTNVAWYQQKPGQSPKALIYSASYRYSGVPDRFTGSGSGTDFTLTISNVQSEDLADYFCQQYNSYPRTFGGGTKLEIKR", "notes": "also called anti-KIT antibody 37M; 37M antibody"}}, "key": {"[1]": {"target": "T1, recombinant KIT D4/D5 polypeptide (D4/D5 region of human KIT, V308 to H515, with 5xHis tag) (human, UniProt P10721 26-519)", "T1 construct": "The end residue 246 was computed from the stated composition (33 + 208 + 5); This is the glycosylated (untreated) form; also called KIT D4/D5 antigen; KIT immunogen", "T1 sequence (P10721 other isoform, or with tags, fused parts or gaps)": "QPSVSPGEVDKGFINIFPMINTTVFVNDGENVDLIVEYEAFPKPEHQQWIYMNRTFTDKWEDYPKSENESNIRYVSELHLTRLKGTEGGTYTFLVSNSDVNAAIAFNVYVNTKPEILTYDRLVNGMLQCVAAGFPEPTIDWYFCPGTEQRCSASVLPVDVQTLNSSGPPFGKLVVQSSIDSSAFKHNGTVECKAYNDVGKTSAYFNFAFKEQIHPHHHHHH", "test": "competition solid phase ELISA on KIT D4/D5 antigen; reference 37M titrated with competitor antibody 37C at 10 nM"}, "[2]": {"target": "full-length, wild-type human KIT (human, UniProt P10721 26-976)", "sequence (P10721 other isoform, or with tags, fused parts or gaps limits assumed)": "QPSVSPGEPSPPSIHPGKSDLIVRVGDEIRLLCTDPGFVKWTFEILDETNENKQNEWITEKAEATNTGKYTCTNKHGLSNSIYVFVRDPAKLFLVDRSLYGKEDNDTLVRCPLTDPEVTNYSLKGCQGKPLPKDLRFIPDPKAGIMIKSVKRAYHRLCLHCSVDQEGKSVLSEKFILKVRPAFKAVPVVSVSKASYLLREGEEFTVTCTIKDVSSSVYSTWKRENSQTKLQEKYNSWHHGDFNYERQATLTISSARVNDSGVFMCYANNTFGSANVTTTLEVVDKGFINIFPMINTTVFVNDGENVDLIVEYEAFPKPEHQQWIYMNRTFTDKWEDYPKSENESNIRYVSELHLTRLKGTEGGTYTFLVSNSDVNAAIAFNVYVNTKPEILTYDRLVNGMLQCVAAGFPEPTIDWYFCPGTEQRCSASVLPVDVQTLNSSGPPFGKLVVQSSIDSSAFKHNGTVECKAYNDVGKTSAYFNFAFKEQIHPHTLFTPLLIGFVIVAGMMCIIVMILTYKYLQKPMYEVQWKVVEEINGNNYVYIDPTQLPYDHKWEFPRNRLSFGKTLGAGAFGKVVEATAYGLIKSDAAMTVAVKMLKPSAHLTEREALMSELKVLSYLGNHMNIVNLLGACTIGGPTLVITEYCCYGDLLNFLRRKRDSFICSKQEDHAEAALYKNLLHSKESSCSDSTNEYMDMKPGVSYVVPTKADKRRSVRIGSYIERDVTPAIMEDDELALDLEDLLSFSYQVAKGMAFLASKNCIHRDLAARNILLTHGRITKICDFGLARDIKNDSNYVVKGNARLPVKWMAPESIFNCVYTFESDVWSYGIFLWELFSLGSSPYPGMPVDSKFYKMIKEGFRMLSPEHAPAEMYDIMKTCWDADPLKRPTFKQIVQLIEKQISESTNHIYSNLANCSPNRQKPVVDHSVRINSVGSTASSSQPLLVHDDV", "test": "cell-based or functional assay"}, "[3]": {"target": "T1, recombinant KIT D4/D5 polypeptide …", "test": "competition solid phase ELISA on KIT D4/D5 antigen; reference 37M titrated alone, no competitor"}, "[4]": {"target": "T2, recombinant D5 domain polypeptide of human KIT (N410 to H515, with 5xHis tag) (human, UniProt P10721 26-519)", "T2 construct": "The end residue 144 was computed (33 + 106 + 5); also called D5 region; D5 domain of human KIT", "T2 sequence (P10721 other isoform, or with tags, fused parts or gaps)": "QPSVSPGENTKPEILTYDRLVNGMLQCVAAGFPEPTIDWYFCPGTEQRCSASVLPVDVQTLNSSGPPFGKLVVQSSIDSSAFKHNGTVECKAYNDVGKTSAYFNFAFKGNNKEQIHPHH", "test": "solid phase ELISA, D5 antigen coated on the plate"}, "[5]": {"target": "T3, recombinant D4 domain polypeptide of human KIT (V308 to K412, with 6xHis tag) (human, UniProt P10721 26-412)", "T3 construct": "The end residue 144 was computed (33 + 105 + 6); also called D4 region; D4 domain of human KIT", "T3 sequence (P10721 other isoform, or with tags, fused parts or gaps)": "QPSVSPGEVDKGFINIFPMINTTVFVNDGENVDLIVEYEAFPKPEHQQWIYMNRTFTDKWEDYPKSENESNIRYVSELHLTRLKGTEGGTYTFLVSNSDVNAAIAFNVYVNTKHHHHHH", "test": "solid phase ELISA, antigen coated on plate; D4 region alone"}}, "data": [{"binder": "B1", "values": [{"measurement": "EC50", "setting": "[1]", "result": 2.8, "unit": "nM"}, {"measurement": "50% inhibition concentration (IC50) of SCF-induced KIT tyrosine phosphorylation, cell-based phospho-KIT assay, CHO/KIT-WT cells", "setting": "[2]", "result": "~0.109", "unit": "nM"}, {"measurement": "IC50 of SCF-induced AKT phosphorylation (phospho-AKT assay), sorted CHO/KIT-WT cells", "setting": "[2]", "result": "~0.138", "unit": "nM"}, {"measurement": "IC50 of SCF-induced KIT tyrosine phosphorylation, separate experiment (FIG. 11A), CHO/KIT-WT cells", "setting": "[2]", "result": "~0.096", "unit": "nM"}, {"measurement": "EC50", "setting": "[3]", "result": 0.115, "unit": "nM"}, {"measurement": "EC50", "setting": "[4]", "result": "> 3000", "unit": "nM"}, {"measurement": "EC50", "setting": "[5]", "result": "~0.572", "unit": "nM"}]}]}
